# Data taken from paper PMC3439905.
# B1: TBA (thrombin-binding aptamer) (structured_DNA)
# DNA: GGTTGGTGTGGTTGG
# Target: human alpha-thrombin (CD samples) (Homo sapiens, UniProt P00734;P00734 328-363;364-622)
# Test: CD thermal denaturation at 295 nm
binder,measurement,value
B1,binding result,binds
